The source of these data is patent CN112574297A.

This assay has as its target H7N9病毒的神经氨酸酶(NA) (avian influenza virus H7N9). Description: cell-based or functional assay.

B1: 抗禽流感H7N9神经氨酸酶抗原的单克隆抗体D3 (antibody, V domains shown)
VH: IQVKLQESGPELVKPGASVKISCKASGYSFTGYYMHWVKQSHVKSLQWIGRINPYNGATSYNQNFKDKASLTVDKSSSTAYMELHSLTSEDSAVYYCARSGNYAMDYWGQGTTVTVSS
VL: DIELTQSPASLAVSLGQRATISYRASKSVSTSGYSYMHWNQQKPGQPPRLLIYLVSNLESGVPARFSGSGSGTDFTLNIHPVEEEDAATYYCQHIRELTRSEGGPSSRSN
As for B1, the NA活性抑制IC50 (酶联凝集素法 ELLA) stood at 5.22 µg/mL.
